According to US20070219354A1:

Biological target: APP695-derived polypeptide (SEQ. ID. NO.:28) having the modified sequence NLDV (SEQ. ID. NO.:7) (Homo sapiens (Human)) (UniProt P05067)
Experiment: cell-based or functional assay

β-secretase of the HEK293T cells used in Example 4 (from UniProt P56817 46-501) (enzyme)
Aβ production in HEK293T cells (IP/Western, densitometry) (times the level of wild type APP695): > 3
